The values that follow come from patent US20240262900A1, “MATERIALS AND METHODS FOR DIFFERENTIATING CREB REGULATEDTRANSCRIPTION COACTIVATOR 3” (JANSSEN BIOTECH, INC., priority 2021, published 2024).

In experiment [1] the target is T1, CRTC3 phosphorylated at serine 329 (pSer329) (Homo sapiens, UniProt Q6UUV7).
T1 construct: All recombinant CRTC3 full-length protein versions are preceded with; FLAG (N); AVI (N); made in house; host or cells: Baculovirus expression system
T1 sequence (Q6UUV7 1-619): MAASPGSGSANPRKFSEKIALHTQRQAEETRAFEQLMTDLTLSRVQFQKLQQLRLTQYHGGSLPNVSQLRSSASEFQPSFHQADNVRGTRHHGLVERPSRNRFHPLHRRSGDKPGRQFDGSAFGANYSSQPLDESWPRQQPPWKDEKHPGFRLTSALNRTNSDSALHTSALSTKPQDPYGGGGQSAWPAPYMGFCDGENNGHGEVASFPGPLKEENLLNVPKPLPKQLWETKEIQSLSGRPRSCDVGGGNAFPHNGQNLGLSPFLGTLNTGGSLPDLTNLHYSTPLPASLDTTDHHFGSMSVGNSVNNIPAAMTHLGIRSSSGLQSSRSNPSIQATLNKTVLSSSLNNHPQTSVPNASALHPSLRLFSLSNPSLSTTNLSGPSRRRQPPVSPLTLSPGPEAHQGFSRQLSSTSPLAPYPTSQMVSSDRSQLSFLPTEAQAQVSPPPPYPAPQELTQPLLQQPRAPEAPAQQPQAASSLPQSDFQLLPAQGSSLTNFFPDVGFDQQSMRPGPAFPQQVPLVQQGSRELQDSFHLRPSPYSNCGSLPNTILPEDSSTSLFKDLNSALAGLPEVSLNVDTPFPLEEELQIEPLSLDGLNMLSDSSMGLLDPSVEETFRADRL
Briefly: Immunoblotting of in vitro phosphorylated recombinant CRTC3 wild type vs S329A mutant protein. To be noted: for specific detection of human CRTC3 by phosphorylation state (conclusion of the experiments): serine 329. It counts as binding. The text has this: (§1) To facilitate the identification of hybridomas that produced antibodies specific for the phosphorylated immunizing peptides, CRTC3 proteins were designed that harbored serine to alanine mutations at either position 329 (S329A mutant) or 370 (S370A mutant; Table 3) rendering them unable to carry phosphate groups at positions 329 and 370, respectively. In addition, CRTC3 protein harboring the unmutated wild type (WT) amino acid sequence was produced as a control reagent (Table 3). Briefly, proteins were overexpressed in a Baculovirus expression system and purified using M2 anti-flag magnetic beads (Millipore-Sigma). The wild type protein was additionally subjected to subsequent size exclusion chromatography. All purified proteins were phosphorylated in vitro in the presence of internally produced SIK2 variant (6His-MBP-TEV-SIK2-PKD-UBA; SEQ ID NO: 187) and 1 mM ATP (Promega) in a buffer containing 50 mM Tris pH 7.5, 100 mM NaCl, 10 mM MgCl2 (all from Quality Biologicals), 0.1 mM EDTA (Corning), 1 mM DTT (MP Biomedicals). Phosphorylation reactions were quenched by the addition of excess EDTA.
(§2) Immunoblotting was done using the NuPAGE electrophoresis and western Blotting system (Invitrogen). Briefly, 0.1-0.15 microgram of WT or S329A mutant or S370A mutant recombinant protein along with WesternSure® Pre-stained Chemiluminescent Protein Ladder (Li-Cor) were loaded onto NuPAGE® Bis-Tris gels and separated by electrophoresis. Subsequently, proteins were transferred onto nitrocellulose membranes (iBlot® 2 Transfer Stacks, nitrocellulose, mini; ThermoFisher) using an iBlot 2® Gel Transfer Device (ThermoFisher). Specific bands on the nitrocellulose membranes were detected using the automatic Western blot-processing iBind™ Flex Western System (ThermoFisher) as per the manufacturer's recommendations. As primary antibodies served either undiluted hybridoma supernatant or recombinantly expressed mAbs at 0.25 microgram/ml, whereas Peroxidase AffiniPure Donkey Anti-Rabbit IgG (H+L) (Jackson ImmunoResearch) was used as secondary antibody at a 1:4000 dilution. The blots were developed using Amersham ECL Western Blotting Detection Reagent and an ImageQuant LAS4000 image scanner (both GE Healthcare Life Sciences).

The subject of experiment [2] is phosphorylated CRTC3 in THP1 lysates. The experiment can be described thus: Immunoblotting of lysates of macrophage-differentiated, LPS-stimulated THP1 cells, untreated or incubated with dasatinib. It counts as binding, human. Particulars: recombinant mAb.
Excerpt: as §2
Cells were then either left untreated or incubated with dasatinib at 10 micromolar for 1.5 hours before cell harvest. […] Cells were washed in cold PBS (Gibco) and lysed on ice in 50 mM Tris HCl (Alfa Aesar) at pH 7.4, 1 mM DTT, 1% (vol/vol) Triton X-100 (both ThermoFisher), 1 mM EDTA (Gibco), 1 mM EGTA (Alfa Aesar) supplemented with protease inhibitor (cOmplete™ ULTRA Tablets; Roche) and phosphatase inhibitor (Phosstop, Roche) as per the manufacturer's recommendations for 1 hour. Extracted proteins were harvested by collecting the supernatant after centrifugation of the lysate for 20 minutes. Protein concentrations were determined using the Pierce Detergent-compatible Bradford Assay kit (Pierce). Lysate proteins were separated by gel electrophoresis and detected by immunoblotting as described above. […] That the detected signals indeed corresponded to CRTC3 was verified in independent experiments, in which similarly treated THP1 lysates were developed using an antibody recognizing CRTC3 independent of its phosphorylation status (EPR3440; purified; rabbit; Abcam; data not shown).
(In general: A western blot detects proteins with antibodies after separation by electrophoresis.)

Experiment [3] deals with T2, CRTC3 phosphorylated at serine 370 (pSer370) (Homo sapiens, UniProt Q6UUV7).
T2 construct: All recombinant CRTC3 full-length protein versions are preceded with; FLAG (N); AVI (N); made in house; host or cells: Baculovirus expression system
T2 sequence (Q6UUV7 1-619): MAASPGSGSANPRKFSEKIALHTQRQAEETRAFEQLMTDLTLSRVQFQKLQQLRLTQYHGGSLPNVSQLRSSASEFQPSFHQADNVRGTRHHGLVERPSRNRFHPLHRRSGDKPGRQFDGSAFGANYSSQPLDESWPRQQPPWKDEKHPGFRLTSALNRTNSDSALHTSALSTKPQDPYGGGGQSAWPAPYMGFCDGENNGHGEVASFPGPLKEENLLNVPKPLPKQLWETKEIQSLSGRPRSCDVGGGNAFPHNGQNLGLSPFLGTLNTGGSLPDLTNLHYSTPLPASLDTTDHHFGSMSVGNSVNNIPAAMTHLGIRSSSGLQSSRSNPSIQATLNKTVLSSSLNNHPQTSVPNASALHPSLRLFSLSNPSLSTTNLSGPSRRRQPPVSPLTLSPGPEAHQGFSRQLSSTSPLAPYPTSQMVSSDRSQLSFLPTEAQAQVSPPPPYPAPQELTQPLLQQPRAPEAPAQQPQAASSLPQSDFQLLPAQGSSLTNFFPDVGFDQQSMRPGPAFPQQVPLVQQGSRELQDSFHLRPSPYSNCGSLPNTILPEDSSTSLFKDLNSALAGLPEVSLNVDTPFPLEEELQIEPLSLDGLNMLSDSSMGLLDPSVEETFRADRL
Briefly: Immunoblotting of in vitro phosphorylated recombinant CRTC3 wild type vs S370A mutant protein. It counts as binding. To be noted: for specific recognition of human CRTC3 by phosphorylation state (conclusion of the experiments): serine 370.
Excerpt: as §1, §2

The mark [4] stands for this setting: recombinantly expressed mAb at 0.25 microgram/ml, FIG. 2C.
Where [5] appears, read: undiluted hybridoma tissue culture supernatant as primary antibody, FIG. 2A.
Setting [6] is: THP1 lysates not incubated with a SIK inhibitor (lane 3).
The mark [7] stands for this setting: THP1 lysates treated for 1.5 hours with dasatinib at 10 micromolar (lane 4).
Where [8] appears, read: recombinant mAb at 0.25 microgram/ml, FIG. 2D.
Setting [9] is: undiluted hybridoma supernatant as primary antibody, FIG. 2B.

B1: mAb #21: anti-phospho-Serine329 CRTC3 monoclonal antibody from rabbit hybridoma; VH SEQ ID NO: 99, VL SEQ ID NO: 100 (antibody, V domains shown)
VH: QSVEESGGRLVTPGTPLTLTCTVSGIDLSSNTVSWVRQAPGKGLEWIGVSGYSGRPYYASWAKGRFTISKTSSTVHLKITSPTAEDTATYFCARGSVNVNIWGPGTLVTVSS
VL: AQVLTQTASPVSAAVGGTVTINCQSSQSVYSSNRLSWFQQKPGQPPKLLMYYTSTLASGVPSRFKGSGSGTEFTLTISGVQCDDAATYYCLGGYDCDIADCSAFGGGTEVVVK
With B1, the “recognition of recombinant CRTC3 WT vs S329A variant by western blot” value in experiment [1] (setting [4]) and in experiment [1] (setting [5]) was “specifically recognized only recombinant CRTC3 protein harboring the WT sequence” throughout. Further, the “specific detection of human CRTC3 by phosphorylation state (conclusion of the experiments)” value in experiment [1] is “specifically detected human CRTC3 only when phosphorylated at serine 329”. Also, the “immunoblot signal at the expected molecular size in THP1 lysates” value (“immunoblot signal” below) in experiment [2] (setting [6]) is reported as “strong signal”; in experiment [2] (setting [7]), “strongly diminished”.

B2: mAb #82: anti-phospho-Serine329 CRTC3 monoclonal antibody from rabbit hybridoma; VH SEQ ID NO: 133, VL SEQ ID NO: 134 (antibody, V domains shown)
VH: QSVEESGGRLVTPGTPLTLTCTVSGIDLSSNTVSWVRQAPGKGLEWIGVIGYSGNGYYASWAKGRFTISKTSTTVDLKMTSPTAEDTATYFCARGSVNCNIWGPGTLVTVSS
VL: AQVLTQTASPVSAAVGGTVTINCQSSQSVISNNRLSWLQQKPGQPPKLLIYYASTLASGVPSRFKGSGSGTQFTLTISGVQCDDAATYYCLGGYDCNSADCSTFGGGTEVVVK
In the case of B2, the “recognition of recombinant CRTC3 WT vs S329A variant by western blot” value in experiment [1] (setting [4]) and in experiment [1] (setting [5]) was “specifically recognized only recombinant CRTC3 protein harboring the WT sequence” in each case. Besides, the “specific detection of human CRTC3 by phosphorylation state (conclusion of the experiments)” value in experiment [1] is given as “specifically detected human CRTC3 only when phosphorylated at serine 329”. The “immunoblot signal” value is on record as “strong signal” in experiment [2] (setting [6]) and “strongly diminished” in experiment [2] (setting [7]).

B3: mAb #170: anti-phospho-Serine370 CRTC3 monoclonal antibody from rabbit hybridoma; VH SEQ ID NO: 65, VL SEQ ID NO: 66 (antibody, V domains shown)
VH: QSMKESEGGLFKPTDTLTLTCTVSGFSLSRYGVIWVRQAPGKGLEFIGYISSTGSTYYASWAKSRSTITRNTNENTVTLKVTSLTAADTATYFCAQSGLGYDGGRNIWGPGTLVTVSS
VL: AAVLTQTPSPVSAAVGGTVSISCQSSKSVANSNWLSWYQQKPGQPPKLLIYSASTLASGAPSRFKGSGSGTQFTLTISDVQCDDAATYYCAGGYSDISDIFGFGGGTEVVVK
Take B3: the “immunoblot signal” value in experiment [2] (setting [6]) is reported as “strong signal”; in experiment [2] (setting [7]) it was “strongly diminished”. Moreover, the “signal with recombinant CRTC3 WT vs S370A mutant by western blot” value in experiment [3] (setting [8]) and in experiment [3] (setting [9]) was “specific signal only with WT” each time. For the same molecule, the “specific recognition of human CRTC3 by phosphorylation state (conclusion of the experiments)” value in experiment [3] is given as “specifically recognized human CRTC3 only when phosphorylated at serine 370”.

B4: mAb #157: anti-phospho-Serine370 CRTC3 monoclonal antibody from rabbit hybridoma; VH SEQ ID NO: 31, VL SEQ ID NO: 32 (antibody, V domains shown)
VH: QEQLKESGGGLFKPMDILTVTCTVSGISLSSYGLSWVRQAPGNGLEWIGAIGASGSAYYASWAKSRSTITRNTNLNTVTLKMTSLTAADTATYFCKRNYIWGPGTLVTVSS
VL: AQVLTQTASPVSAAVGGTVTINCQASQSVYSDNRLSWYQQKPGQPPKLLIYEASKLASGVPPRFSGSGSGTQFTLAISGVQCDDAATYYCQGSYDCNSADCSAFGGGTEVVVK
On to B4, for which the “immunoblot signal” value is given as “strong signal” in experiment [2] (setting [6]) and “strongly diminished” in experiment [2] (setting [7]). Further, the “signal with recombinant CRTC3 WT vs S370A mutant by western blot” value in experiment [3] (setting [8]) and in experiment [3] (setting [9]) was “specific signal only with WT” in each case. Also, the “specific recognition of human CRTC3 by phosphorylation state (conclusion of the experiments)” value in experiment [3] is recorded as “specifically recognized human CRTC3 only when phosphorylated at serine 370”.
